Test [1] addresses T1, GATA3 neoORF (frameshift; CSNH) peptide on HLA-B*08:01 (human).
T1 peptide: ESKIMFATL
Briefly: cytokine release.

Test [2] addresses T2, TMPRSS2:ERG gene fusion peptide on HLA-A*02:01 (human).
T2 peptide: ALNSEALSV
Briefly: multimer staining. The text has this: (§1) Neoantigen specific T cells were detected by combining HLA-multimer staining with 2 different fluorochrome conjugated recombinant HLA (HLA-A02.01, HLA-A03.01, or HLA-A11.01) multimer with neoantigen peptides. Anti-CD8, anti-CD4, anti-CD19, anti-CD16, anti-CD14, anti-CD56 and antibodies and Live/Dead IR dye (Invitrogen) were used for cell surface staining. CD8⁺ T cells were identified as CD8⁺CD4⁻CD19⁻CD16⁻CD14⁻CD56⁻IR⁻ (FIGS. 1, 2, 4A, 5, 6A, 8F, 8G, 9, 10A, 10B, 11, 13, 15, 16A and 16B). For sorting, up to 5×10⁶ cells were incubated with 1-20 μg multimer in 100 μL PBS+0.5% human serum. Antibodies and Live/Dead IR dye were used to stain the cells for an additional 30 min. After staining, cells were washed twice and diluted in PBS+0.5% human serum. Live/Dead IR dye-negative cells were gated and CD8⁺/multimer⁺ T cells were sorted on a FACSAria cell sorter (BD Biosciences).

Test [3] has as its target T3, BTK C481S peptide on HLA-A*02:01 (human).
T3 peptide: SLLNYLREM
The test can be described thus: multimer staining.
Description: as §1

Test [4] deals with T4, KRAS G12V peptide on HLA-A*11:01 (human).
T4 peptide: VVGAVGVGK
Briefly: multimer staining.
Description: as §1

Test [5] deals with T5, GATA3 neoORF (frameshift; CSNH) peptide on HLA-A*02:01 (human).
T5 peptide: MLTGPPARV
Briefly: multimer staining.
Description: as §1

The values below come from patent US20210340215A1 (published 2021).

B1: GATA3 TCR-3 (TCR, V domains shown)
Valpha: AQSVSQHNHHVILSEAASLELGCNYSYGGTVNLFWYVQYPGQHLQLLLKYFSGDPLVKGIKGFEAEFIKSKFSFNLRKPSVQWSDTAEYFCAVISVTGNNRKLIWGLGTSLAVNP
Vbeta: DGGITQSPKYLFRKEGQNVTLSCEQNLNHDAMYWYRQDPGQGLRLIYYSQIVNDFQKGDIAEGYSVSREKKESFPLTVTSAQKNPTAFYLCASSRTAMNTEAFFGQGTRLTVV
Regarding B1, the binding result in test [1] is on record as “recognises”.

B2: TMPRSS2::ERG TCR-1 (TCR, V domains shown)
Valpha: AQKVTQAQTEISVVEKEDVTLDCVYETRDTTYYLFWYKQPPSGELVFLIRRNSFDEQNEISGRYSWNFQKSTSSFNFTITASQVVDSAVYFCALSEARVFNGANSKLTFGKGITLSVRP
Vbeta: EAGVTQFPSHSVIEKGQTVTLRCDPISGHDNLYWYRRVMGKEIKFLLHFVKESKQDESGMPNNRFLAERTGGTYSTLKVQPAELEDSGVYFCASSQADSPLHFGNGTRLTVT
For B2, in test [2], the binding result is on record as “recognises”.

B3: BTK TCR-1 (TCR, V domains shown)
Valpha: QKEVEQNSGPLSVPEGAIASLNCTYSDRGSQSFFWYRQYSGKSPELIMFIYSNGDKEDGRFTAQLNKASQYVSLLIRDSQPSDSATYLCAVNDYGGSQGNLIFGKGTKLSVKP
Vbeta: DTGVSQNPRHKITKRGQNVTFRCDPISEHNRLYWYRQTLGQGPEFLTYFQNEAQLEKSRLLSDRFSAERPKGSFSTLEIQRTEQGDSAMYLCASSFGPDEKLFFGSGTQLSVL
As to B3, the binding result in test [3] is “recognises”.

B4: RAS TCR-26 (TCR, V domains shown)
Valpha: DQQVKQNSPSLSVQEGRISILNCDYTNSMFDYFLWYKKYPAEGPTFLISISSIKDKNEDGRFTVFLNKSAKHLSLHIVPSQPGDSAVYFCAANAGGTSYGKLTFGQGTILTVHP
Vbeta: EPEVTQTPSHQVTQMGQEVILRCVPISNHLYFYWYRQILGQKVEFLVSFYNNEISEKSEIFDDQFSVERPDGSNFTLKIRSTKLEDSAMYFCASSEWGSTGELFFGEGSRLTVL
Consider B4, for which the binding result in test [4] was “recognises”.

B5: RAS TCR-27 (TCR, V domains shown)
Valpha: ELKVEQNPLFLSMQEGKNYTIYCNYSTTSDRLYWYRQDPGKSLESLFVLLSNGAVKQEGRLMASLDTKARLSTLHITAAVHDLSATYFCAVDIIGGKSTFGDGTTLTVKP
Vbeta: EPEVTQTPSHQVTQMGQEVILRCVPISNHLYFYWYRQILGQKVEFLVSFYNNEISEKSEIFDDQFSVERPDGSNFTLKIRSTKLEDSAMYFCASSEWGSTGELFFGEGSRLTVL
For the molecule B5, the binding result in test [4] is given as “recognises”.

B6: GATA3 TCR-1 (TCR, V domains shown)
Valpha: SQKIEQNSEALNIQEGKTATLTCNYTNYSPAYLQWYRQDPGRGPVFLLLIRENEKEKRKERLKVTFDTTLKQSLFHITASQPADSATYLCALDIYGNNRLAFGKGNQVVVIP
Vbeta: DVKVTQSSRYLVKRTGEKVFLECVQDMDHENMFWYRQDPGLGLRLIYFSYDVKMKEKGDIPEGYSVSREKKERFSLILESASTNQTSMYLCASSLDFVLAGSYSYNEQFFGPGTRLTVL
As for B6, the binding result in test [5] is on record as “recognises”.

B7: BTK TCR-2 (TCR, V domains shown)
Valpha: QKEVEQNSGPLSVPEGAIASLNCTYSDRGSQSFFWYRQYSGKSPELIMFIYSNGDKEDGRFTAQLNKASQYVSLLIRDSQPSDSATYLCAVNEGDSSYKLIFGSGTRLLVRP
Vbeta: DSGVTQTPKHLITATGQRVTLRCSPRSGDLSVYWYQQSLDQGLQFLIQYYNGEERAKGNILERFSAQQFPDLHSELNLSSLELGDSALYFCASSPGANEKLFFGSGTQLSVL
As for B7, the binding result in test [3] was “recognises”.

B8: RAS TCR-28 (TCR, V domains shown)
Valpha: DQQVKQNSPSLSVQEGRISILNCDYTNSMFDYFLWYKKYPAEGPTFLISISSIKDKNEDGRFTVFLNKSAKHLSLHIVPSQPGDSAVYFCAASAVGQEYGNKLVFGAGTILRVKS
Vbeta: DTGVSQNPRHKITKRGQNVTFRCDPISEHNRLYWYRQTLGQGPEFLTYFQNEAQLEKSRLLSDRFSAERPKGSFSTLEIQRTEQGDSAMYLCASSEYTMGTQYFGPGTRLLVL
On to B8, for which, in test [4], the binding result is on record as “recognises”.
